A word on the Kd: it is the constant that tells how readily two partners part at equilibrium. A lower Kd goes with higher affinity.

The text below walks through data of paper PMC9352680, “A comprehensive thermodynamic model for RNA binding by the Saccharomyces cerevisiae Pumilio protein PUF4”.

To fix the notation:
T1: PUF4 RNA-binding domain (Saccharomyces cerevisiae, UniProt P25339 537-888)
T1 sequence: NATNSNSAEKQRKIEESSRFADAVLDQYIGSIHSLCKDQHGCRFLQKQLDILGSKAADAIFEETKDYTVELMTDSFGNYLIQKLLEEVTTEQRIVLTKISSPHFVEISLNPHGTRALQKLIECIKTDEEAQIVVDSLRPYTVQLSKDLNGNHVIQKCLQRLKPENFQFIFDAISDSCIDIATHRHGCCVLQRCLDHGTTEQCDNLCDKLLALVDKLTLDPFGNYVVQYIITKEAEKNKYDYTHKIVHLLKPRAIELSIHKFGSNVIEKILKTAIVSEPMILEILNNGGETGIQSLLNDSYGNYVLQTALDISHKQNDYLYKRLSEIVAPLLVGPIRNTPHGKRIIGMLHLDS

B1: Ie_S2_P3E.2_K3.1_C3.2_H3.1_[+3CTCTC]_A3.1_F3.1_T3.2 (ssRNA)
RNA: UUUGAUUAAUAUGAUAUCGUUCUUUCUCUUGUCUCUCAUAUAUAUUCUUUCUCGAUAUCAUAUUAAUCUUU
B2: Ie_S2_P3E.2_K3.1_C3.2_H3.1_[+3TTCCT]_A3.1_F3.1_T3.2 (ssRNA)
RNA: UUUGAUUAAUAUGAUAUCGUUCUUUCUCUUGUUUCCUAUAUAUAUUCUUUCUCGAUAUCAUAUUAAUCUUU
B3: Ie_S2_P3E.2_K3.1_C3.2_H3.1_[+4CCCTT]_A3.1_F3.1_T3.2 (ssRNA)
RNA: UUUGAUUAAUAUGAUAUCGUUCUUUCUCUUGUACCCUUUAUAUAUUCUUUCUCGAUAUCAUAUUAAUCUUU
B4: Ie_S2_P3E.2_K3.1_C3.2_H3.1_[+3CCCTT]_A3.1_F3.1_T3.2 (ssRNA)
RNA: UUUGAUUAAUAUGAUAUCGUUCUUUCUCUUGUCCCUUAUAUAUAUUCUUUCUCGAUAUCAUAUUAAUCUUU
B5: Ic_S2_P3E.1_K3.1_C3.1_H3.1_A3.1_[A6T]_F3.1_[T7A]_T3.1 (ssRNA)
RNA: UUUGAUUAAUAUGAUAUCGUUCUUUCUUGUAUUAAUUCUUUCUCGAUAUCAUAUUAAUCUUU
B6: Ia_S2_P3E.1_K3.1_C3.1_H3.1_[G2T]_A3.1_F3.1_T3.1 (ssRNA)
RNA: UUUGAUUAAUAUGAUAUCGUUCUUUCUUUUAUAUAUUCUUUCUCGAUAUCAUAUUAAUCUUU
B7: Ic_S2_P3E.1_K3.1_C3.1_H3.1_A3.1_[T5C]_F3.1_[A8C]_T3.1 (ssRNA)
RNA: UUUGAUUAAUAUGAUAUCGUUCUUUCUUGUACAUCUUCUUUCUCGAUAUCAUAUUAAUCUUU
B8: Ic_S2_P3E.1_K3.1_C3.1_H3.1_A3.1_[T5C]_F3.1_[A8G]_T3.1 (ssRNA)
RNA: UUUGAUUAAUAUGAUAUCGUUCUUUCUUGUACAUGUUCUUUCUCGAUAUCAUAUUAAUCUUU
B9: Ie_S2_P3E.2_K3.1_C3.2_H3.1_[+4CC]_A3.1_F3.1_T3.2 (ssRNA)
RNA: UUUGAUUAAUAUGAUAUCGUUCUUUCUCUUGUACCUAUAUAUUCUUUCUCGAUAUCAUAUUAAUCUUU
B10: Ie_S2_P3E.2_K3.1_C3.2_H3.1_A3.1_F3.1_[+8CT]_T3.2 (ssRNA)
RNA: UUUGAUUAAUAUGAUAUCGUUCUUUCUCUUGUAUAUACUUAUUCUUUCUCGAUAUCAUAUUAAUCUUU
B11: Ie_S2_P3E.2_K3.1_C3.2_H3.1_A3.1_F3.1_[+8TT]_T3.2 (ssRNA)
RNA: UUUGAUUAAUAUGAUAUCGUUCUUUCUCUUGUAUAUAUUUAUUCUUUCUCGAUAUCAUAUUAAUCUUU
B12: Ie_S2_P3E.2_K3.1_C3.2_H3.1_A3.1_[+5CC]_F3.1_T3.2 (ssRNA)
RNA: UUUGAUUAAUAUGAUAUCGUUCUUUCUCUUGUAUCCAUAUAUUCUUUCUCGAUAUCAUAUUAAUCUUU
B13: Ie_S2_P3E.2_K3.1_C3.2_H3.1_A3.1_F3.1_[+7CT]_T3.2 (ssRNA)
RNA: UUUGAUUAAUAUGAUAUCGUUCUUUCUCUUGUAUAUCUAUAUUCUUUCUCGAUAUCAUAUUAAUCUUU
B14: Ie_S2_P3E.2_K3.1_C3.2_H3.1_A3.1_F3.1_[+7CC]_T3.2 (ssRNA)
RNA: UUUGAUUAAUAUGAUAUCGUUCUUUCUCUUGUAUAUCCAUAUUCUUUCUCGAUAUCAUAUUAAUCUUU
B15: Ie_S2_P3E.2_K3.1_C3.2_H3.1_A3.1_F3.1_[+8TC]_T3.2 (ssRNA)
RNA: UUUGAUUAAUAUGAUAUCGUUCUUUCUCUUGUAUAUAUCUAUUCUUUCUCGAUAUCAUAUUAAUCUUU
B16: Ie_S2_P3E.2_K3.1_C3.2_H3.1_A3.1_[+5CT]_F3.1_T3.2 (ssRNA)
RNA: UUUGAUUAAUAUGAUAUCGUUCUUUCUCUUGUAUCUAUAUAUUCUUUCUCGAUAUCAUAUUAAUCUUU
B17: Ie_S2_P3E.2_K3.1_C3.2_H3.1_[+4C]_A3.1_F3.1_T3.2 (ssRNA)
RNA: UUUGAUUAAUAUGAUAUCGUUCUUUCUCUUGUACUAUAUAUUCUUUCUCGAUAUCAUAUUAAUCUUU
B18: Ie_S2_P3E.2_K3.1_C3.2_H3.1_A3.1_[+5T]_F3.1_T3.2 (ssRNA)
RNA: UUUGAUUAAUAUGAUAUCGUUCUUUCUCUUGUAUUAUAUAUUCUUUCUCGAUAUCAUAUUAAUCUUU
B19: Ie_S2_P3E.2_K3.1_C3.2_H3.1_A3.1_[+5C]_F3.1_T3.2 (ssRNA)
RNA: UUUGAUUAAUAUGAUAUCGUUCUUUCUCUUGUAUCAUAUAUUCUUUCUCGAUAUCAUAUUAAUCUUU
B20: Ie_S2_P3E.2_K3.1_C3.2_H3.1_A3.1_F3.1_[+8C]_T3.2 (ssRNA)
RNA: UUUGAUUAAUAUGAUAUCGUUCUUUCUCUUGUAUAUACUAUUCUUUCUCGAUAUCAUAUUAAUCUUU
B21: Ie_S2_P3E.2_K3.1_C3.2_H3.1_A3.1_[+6C]_F3.1_T3.2 (ssRNA)
RNA: UUUGAUUAAUAUGAUAUCGUUCUUUCUCUUGUAUACUAUAUUCUUUCUCGAUAUCAUAUUAAUCUUU
B22: Ie_S2_P3E.2_K3.1_C3.2_H3.1_A3.1_F3.1_[+7C]_T3.2 (ssRNA)
RNA: UUUGAUUAAUAUGAUAUCGUUCUUUCUCUUGUAUAUCAUAUUCUUUCUCGAUAUCAUAUUAAUCUUU
B23: Ie_S2_P3E.2_K3.1_C3.2_H3.1_A3.1_F3.1_[+8T]_T3.2 (ssRNA)
RNA: UUUGAUUAAUAUGAUAUCGUUCUUUCUCUUGUAUAUAUUAUUCUUUCUCGAUAUCAUAUUAAUCUUU
B24: Ie_S2_P3E.2_K3.1_C3.2_H3.1_[+3CCTC]_A3.1_F3.1_T3.2 (ssRNA)
RNA: UUUGAUUAAUAUGAUAUCGUUCUUUCUCUUGUCCUCAUAUAUAUUCUUUCUCGAUAUCAUAUUAAUCUUU
B25: Ie_S2_P3E.2_K3.1_C3.2_H3.1_[+4CCTC]_A3.1_F3.1_T3.2 (ssRNA)
RNA: UUUGAUUAAUAUGAUAUCGUUCUUUCUCUUGUACCUCUAUAUAUUCUUUCUCGAUAUCAUAUUAAUCUUU
B26: Ie_S2_P3E.2_K3.1_C3.2_H3.1_[+3CCCT]_A3.1_F3.1_T3.2 (ssRNA)
RNA: UUUGAUUAAUAUGAUAUCGUUCUUUCUCUUGUCCCUAUAUAUAUUCUUUCUCGAUAUCAUAUUAAUCUUU
B27: Ie_S2_P3E.2_K3.1_C3.2_H3.1_[+4CTCT]_A3.1_F3.1_T3.2 (ssRNA)
RNA: UUUGAUUAAUAUGAUAUCGUUCUUUCUCUUGUACUCUUAUAUAUUCUUUCUCGAUAUCAUAUUAAUCUUU
B28: Ie_S2_P3E.2_K3.1_C3.2_H3.1_[+4CCCT]_A3.1_F3.1_T3.2 (ssRNA)
RNA: UUUGAUUAAUAUGAUAUCGUUCUUUCUCUUGUACCCUUAUAUAUUCUUUCUCGAUAUCAUAUUAAUCUUU
B29: Ie_S2_P3E.2_K3.1_C3.2_H3.1_[+3CTC]_A3.1_F3.1_T3.2 (ssRNA)
RNA: UUUGAUUAAUAUGAUAUCGUUCUUUCUCUUGUCUCAUAUAUAUUCUUUCUCGAUAUCAUAUUAAUCUUU
B30: Ie_S2_P3E.2_K3.1_C3.2_H3.1_A3.1_F3.1_[+8CCC]_T3.2 (ssRNA)
RNA: UUUGAUUAAUAUGAUAUCGUUCUUUCUCUUGUAUAUACCCUAUUCUUUCUCGAUAUCAUAUUAAUCUUU
B31: Ie_S2_P3E.2_K3.1_C3.2_H3.1_A3.1_F3.1_[+7TCC]_T3.2 (ssRNA)
RNA: UUUGAUUAAUAUGAUAUCGUUCUUUCUCUUGUAUAUUCCAUAUUCUUUCUCGAUAUCAUAUUAAUCUUU
B32: Ie_S2_P3E.2_K3.1_C3.2_H3.1_[+4CCC]_A3.1_F3.1_T3.2 (ssRNA)
RNA: UUUGAUUAAUAUGAUAUCGUUCUUUCUCUUGUACCCUAUAUAUUCUUUCUCGAUAUCAUAUUAAUCUUU
B33: Ie_S2_P3E.2_K3.1_C3.2_H3.1_A3.1_F3.1_[+8CTC]_T3.2 (ssRNA)
RNA: UUUGAUUAAUAUGAUAUCGUUCUUUCUCUUGUAUAUACUCUAUUCUUUCUCGAUAUCAUAUUAAUCUUU
B34: Ie_S2_P3E.2_K3.1_C3.2_H3.1_A3.1_F3.1_[+8TCC]_T3.2 (ssRNA)
RNA: UUUGAUUAAUAUGAUAUCGUUCUUUCUCUUGUAUAUAUCCUAUUCUUUCUCGAUAUCAUAUUAAUCUUU
B35: Ie_S2_P3E.2_K3.1_C3.2_H3.1_A3.1_F3.1_[+7CTC]_T3.2 (ssRNA)
RNA: UUUGAUUAAUAUGAUAUCGUUCUUUCUCUUGUAUAUCUCAUAUUCUUUCUCGAUAUCAUAUUAAUCUUU
B36: Ie_S2_P3E.2_K3.1_C3.2_H3.1_[+4CTT]_A3.1_F3.1_T3.2 (ssRNA)
RNA: UUUGAUUAAUAUGAUAUCGUUCUUUCUCUUGUACUUUAUAUAUUCUUUCUCGAUAUCAUAUUAAUCUUU
B37: Ie_S2_P3E.2_K3.1_C3.2_H3.1_A3.1_F3.1_[+7TTC]_T3.2 (ssRNA)
RNA: UUUGAUUAAUAUGAUAUCGUUCUUUCUCUUGUAUAUUUCAUAUUCUUUCUCGAUAUCAUAUUAAUCUUU
B38: Ie_S2_P3E.2_K3.1_C3.2_H3.1_[+4CCT]_A3.1_F3.1_T3.2 (ssRNA)
RNA: UUUGAUUAAUAUGAUAUCGUUCUUUCUCUUGUACCUUAUAUAUUCUUUCUCGAUAUCAUAUUAAUCUUU
B39: Ie_S2_P3E.2_K3.1_C3.2_H3.1_A3.1_F3.1_[+7CCC]_T3.2 (ssRNA)
RNA: UUUGAUUAAUAUGAUAUCGUUCUUUCUCUUGUAUAUCCCAUAUUCUUUCUCGAUAUCAUAUUAAUCUUU
B40: Ie_S2_P3E.2_K3.1_C3.2_H3.1_[+3TTC]_A3.1_F3.1_T3.2 (ssRNA)
RNA: UUUGAUUAAUAUGAUAUCGUUCUUUCUCUUGUUUCAUAUAUAUUCUUUCUCGAUAUCAUAUUAAUCUUU
B41: Ie_S2_P3E.2_K3.1_C3.2_H3.1_A3.1_F3.1_[+8CCT]_T3.2 (ssRNA)
RNA: UUUGAUUAAUAUGAUAUCGUUCUUUCUCUUGUAUAUACCUUAUUCUUUCUCGAUAUCAUAUUAAUCUUU

The target of this data set is T1, PUF4 RNA-binding domain. Kind of data set: Mg; RNA-MaP; 20 mM Na-HEPES pH 7.4, 30 mM KOAc, 0.75 mM MgCl2, 0.1% Tween-20, 5% glycerol, 0.1 mg/mL BSA, 2 mM DTT; 25 C; 0.0125-409.6 nM protein. The settings on record: tags: N-His6-TEV cleaved; C-SNAP kept, Cy3B-labelled; label: tethered on chip by stalled RNA polymerase.
The molecule B1 showed an equilibrium dissociation constant (Kd) of 76.4 nM. In other words, the double-digit nanomolar range. The figure for B2 is 19.1 nM; for B3 it is 6.09 nM. Turning to B4, binding was put at a Kd of 35.7 nM. This Kd is about 5.9-fold higher than that of the molecule before. The result for B5 reads 56.9 nM; that for B6, 366 nM; that for B7, 11.1 nM. B8 showed a Kd of 10.4 nM. The result for B9 reads 2.33 nM; that for B10, 3.03 nM; that for B11, 1.56 nM. For the molecule B12, binding was put at a Kd of 7.04 nM. This Kd is about 4.5-fold higher than that of the molecule before.

Consider B13, for which the Kd came to 3.3 nM. This Kd is about 2.1-fold lower than that of the molecule before. B14 yielded a dissociation constant (Kd) of 17.5 nM. The figure for B15 is 2.05 nM; for B16 it is 3.75 nM. In turn, B17 displayed a dissociation constant (Kd) of 0.5 nM. Turning to B18, the affinity, expressed as Kd, was 1.52 nM. On to B19, for which the dissociation constant (Kd) turned out to be 0.639 nM. The result for B20 reads 2.93 nM. The figure for B21 is 0.437 nM; for B22 it is 5.11 nM; for B23 it is 1.66 nM. The result for B24 reads 62.8 nM. B25 had a Kd of 4.82 nM.

Molecule B26 registered a Kd of 30.4 nM.

Take B27: binding was put at a Kd of 3.27 nM. The result for B28 reads 2.61 nM; that for B29, 17.3 nM; that for B30, 7.81 nM. The molecule B31 yielded an equilibrium dissociation constant (Kd) of 6.48 nM. The Kd values of the last two molecules are within 1.5-fold of each other.

B32 came in with a Kd of 1.82 nM. On to B33, for which binding was put at a Kd of 5.33 nM. This Kd lies about 2.9-fold higher than the previous one. The result for B34 reads 2.84 nM. Molecule B35 had a Kd of 14 nM. The figure for B36 is 1.08 nM. For the molecule B37, the dissociation constant Kd was found to be 9.85 nM. The figure for B38 is 1.4 nM; for B39 it is 19.5 nM. The result for B40 reads 8.9 nM; that for B41, 2.8 nM.
